We go through two substances from paper PMC7584586.

In test [1] the target is TfiT, yeast two-hybrid fusion (Helicobacter pylori). Kind of test: two-hybrid; pGBT9 bait and pGAD424 prey in S. cerevisiae PJ69-4A; lacZ reporter, β-galactosidase activity in cell extracts with ONPG.
For test [2], the target named is TfiA, yeast two-hybrid fusion (Helicobacter pylori). The test is described as above.

“TfiA, yeast two-hybrid fusion (natural protein)”: in test [1], the lacZ fold increase relative to the self-activation control of the bait vector was found to be 47.2 fold and the lacZ reporter activity (Miller units) worked out at 89.8 Miller units. In test [2], this substance yielded a lacZ fold increase relative to the self-activation control of the bait vector of 27.4 fold and a lacZ reporter activity (Miller units) of 129 Miller units.
In test [2], TfiT, yeast two-hybrid fusion (enzyme) registered a lacZ fold increase relative to the self-activation control of the bait vector of 12.9 fold and a lacZ reporter activity (Miller units) of 60.8 Miller units.
